*1 amine or outer side, *2 acyl side, *3 side chain or, on linkers, in order; H or OH if unused. Bridges are numbered along the chain shown (N, C = ends). [ ]: non-standard residue; d: D form. N5,N5‑dimethylglutamine = CN(C)C(=O)CC[C@H](N[*:1])C(=O)[*:2]; Pro(4S-NH2) = N[C@@H]1CN[C@H](C(=O)O)C1
Legend:
IgG [1] = experiment: SPR, IgG immobilised on CM5 chip, compound as analyte; value from the legend of the grade (++++ = Kd <100 nM)
IgG [2] = experiment: SPR, IgG immobilised on CM5 chip, compound as analyte; value from the legend of the grade (**** = Kd <100 nM)

B1: Intermediate 27 (peptide)
peptide: cyclo([Pro(4S-NH2)]NCAWHLG[N5,N5‑dimethylglutamine]LVWCT[dP])
modifications: disulfide 3-13
SMILES: CC(C)C[C@@H]1NC(=O)[C@H](Cc2c[nH]cn2)NC(=O)[C@H](Cc2c[nH]c3ccccc23)NC(=O)[C@H](C)NC(=O)[C@@H]2CSSC[C@H](NC(=O)[C@H](Cc3c[nH]c4ccccc34)NC(=O)[C@H](C(C)C)NC(=O)[C@H](CC(C)C)NC(=O)[C@H](CCC(=O)N(C)C)NC(=O)CNC1=O)C(=O)N[C@@H]([C@@H](C)O)C(=O)N1CCC[C@@H]1C(=O)N1C[C@@H](N)C[C@H]1C(=O)N[C@@H](CC(N)=O)C(=O)N2
B1 showed a Kd (IgG [1]) of under 100 nM and a Kd (IgG [2]) of under 100 nM.

B2: Intermediate 28 (peptide)
peptide: cyclo([Pro(4S-NH2)]NCAWHLGALVWCT[dP])
modifications: disulfide 3-13
SMILES: CC(C)C[C@@H]1NC(=O)[C@H](C)NC(=O)CNC(=O)[C@H](CC(C)C)NC(=O)[C@H](Cc2c[nH]cn2)NC(=O)[C@H](Cc2c[nH]c3ccccc23)NC(=O)[C@H](C)NC(=O)[C@@H]2CSSC[C@H](NC(=O)[C@H](Cc3c[nH]c4ccccc34)NC(=O)[C@H](C(C)C)NC1=O)C(=O)N[C@@H]([C@@H](C)O)C(=O)N1CCC[C@@H]1C(=O)N1C[C@@H](N)C[C@H]1C(=O)N[C@@H](CC(N)=O)C(=O)N2
Work on B2 yielded a Kd (IgG [1]) of under 100 nM and a Kd (IgG [2]) of under 100 nM.

B3: Intermediate 26 (peptide)
peptide: cyclo([Pro(4S-NH2)]ACAWHLG[N5,N5‑dimethylglutamine]LVWCT[dP])
modifications: disulfide 3-13
SMILES: CC(C)C[C@@H]1NC(=O)[C@H](Cc2c[nH]cn2)NC(=O)[C@H](Cc2c[nH]c3ccccc23)NC(=O)[C@H](C)NC(=O)[C@@H]2CSSC[C@H](NC(=O)[C@H](Cc3c[nH]c4ccccc34)NC(=O)[C@H](C(C)C)NC(=O)[C@H](CC(C)C)NC(=O)[C@H](CCC(=O)N(C)C)NC(=O)CNC1=O)C(=O)N[C@@H]([C@@H](C)O)C(=O)N1CCC[C@@H]1C(=O)N1C[C@@H](N)C[C@H]1C(=O)N[C@@H](C)C(=O)N2
Work on B3 yielded a Kd (IgG [1]) of under 100 nM and a Kd (IgG [2]) of under 100 nM.
